Consider one molecule from paper PMC7145715.

The target in this data set is KDM4B (1-350) (UniProt O94953 1-350). Description: EMSA. For orientation: A gel shift assay detects complexes by their altered migration in electrophoresis.
KDM4B (1-350), sequence (O94953 1-350): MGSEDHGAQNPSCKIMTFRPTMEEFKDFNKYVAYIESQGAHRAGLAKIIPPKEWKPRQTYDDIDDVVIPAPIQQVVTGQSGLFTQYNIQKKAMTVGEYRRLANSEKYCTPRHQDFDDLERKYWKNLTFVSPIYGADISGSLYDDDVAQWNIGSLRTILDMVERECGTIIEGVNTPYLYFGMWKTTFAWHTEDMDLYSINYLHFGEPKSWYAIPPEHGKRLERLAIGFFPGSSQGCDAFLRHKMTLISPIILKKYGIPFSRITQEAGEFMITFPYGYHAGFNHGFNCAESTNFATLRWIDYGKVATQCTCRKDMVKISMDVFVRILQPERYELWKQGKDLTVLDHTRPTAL

In the case of CUCAUCUCCAGUCUGAGUAAUAAUGCUUAUAGUAUUAUGG (ssRNA) [WT-4BRBS (AR-A2)], the binding result is given as “binds”.
